# ± gives the uncertainty stated by the source.
# Experiment: protein stability index of a GFP-peptide fusion (yeast GPS) (PSI 1-4); higher = more stable; sorted into four equal gates, so the index is relative within each strain
# Settings: pdr5∆
# How it was run: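 The protein stability index of a peptide was calculated by multiplying its read frequency in each gate by that gate's number and adding the products. The peptides were tiled 17-residue stretches of yeast proteins, fused downstream of GFP on a Cherry-expressing plasmid and carried in yeast as a pooled library. Mid-log cultures in leucine-free medium were sorted into four equal gates by GFP/Cherry ratio, and each gate's plasmids were PCR-amplified and Illumina-sequenced.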
row,Sequence,protein stability index
1,SADAPNPNNVNVQTQYR [RET1],2.84 ± 0.045
2,SADPSLLIDQFSPVISQ [SWI1],3.08 ± 0.1

# Same assay, conditions: san1∆
row,Sequence,protein stability index
1,RAVFLFRCKETHSYNFM [RPC82],1.98 ± 0.091
2,RAVGGEVGASAALAPKI [RPL12A],1.86 ± 0.18
3,RAYLSHSNRCIVFSKKE [CSN12],1.13 ± 0.15
4,RCLVAVIQQDKYQKALH [SRP72],1.85 ± 0.1
5,RDDLFVRNLQGIQEVVH [NUT1],3.15 ± 0.073
6,RDLILKKGEYARFKSKD [SMC3],2.65 ± 0.21
7,REDLNKAEYVDQYDAER [RPO31],3.33 ± 0.092
8,REFLKVDQEMLYEIILA [SKP1],2.86 ± 0.096
9,REHERVILKQILQILDQ [SWP82],2.84 ± 0.063
10,REHFEKTVAVDSVFEQN [RPL3],2.12 ± 0.12
11,REIVMPAHTKYMLIEEA [ITC1],3.03 ± 0.071
12,RELYKYVRKHDPLNSNI [PRP28],2.96 ± 0.05
13,REQASKSKKSWLNRLNN [YMR153W/NUP53],1.62 ± 0.15
14,REVGTKFTTVLAKILAR [ECM29],1.88 ± 0.097
15,RFAPDNQVTDSSQLNKL [SIR3],2.98 ± 0.12
16,RFNFISKYFIIDSFFLY [YMR129W/POM152],1.31 ± 0.12
17,RFQDPYVAIVVDPLKSL [RRI1],2.26 ± 0.2
18,RGFNNQIMQLKKICNHP [SNF2],3.07 ± 0.049
19,RGKDCTVVISQKKVPDK [SCL1],2.83 ± 0.074
20,RGRNDTLERVHLSYCSN [GRR1],2.69 ± 0.1
21,RHQQLLRSRLQQQQQQQ [SNF5],2.4 ± 0.12
22,RIFISNVSENQPWQMDT [SNF12],3.09 ± 0.04
23,RIGRIEDVTPVPSDSTR [RPS14A],3.26 ± 0.053
24,RIIREMFAYAKEHEPCI [RPT4],2.83 ± 0.11
25,RIKNEQSALSQIIRLFY [ISW2],2.76 ± 0.076

row,Sequence,protein stability index
1,RIQKIISKRKEELEEEF [YIL149C/MLP2],3.02 ± 0.18
2,RKDLRDKLICSIDPPGC [DIS3],2.67 ± 0.055
3,RKEGPTIYYVDSDGTRL [PRE2],2.03 ± 0.074
4,RKHPGGRGMAGGQHHHR [RPL28],3.03 ± 0.1
5,RKHTRGDVSSGLFEKST [BRN1],2.5 ± 0.14
6,RKIEAETRNGKVKNQGA [YCS4],3.12 ± 0.12
7,RKIEFPSLRDRRERRLI [RPT3],2.68 ± 0.066
8,RKIGISIDDHPYNLNLF [RPC31],1.71 ± 0.098
9,RKILNFKKDLVIVLSNI [SWI1],2.11 ± 0.14
10,RKKTEAVARLKSMNKSA [SNF2],2.23 ± 0.1
11,RKNYMHVKNFGFANSLT [YML031W/NDC1],2.3 ± 0.14
12,RKSDQQDVLKGSSASSR [POP1],3.14 ± 0.071
13,RKSVFAPLNFNPIIENN [SSN2],2.75 ± 0.06
14,RKVVKPSSLNSDKIPYV [SRB4],3.06 ± 0.18
15,RLAAPHHWLLDKLSGCY [RPS4A],2.26 ± 0.14
16,RLEEESSWQIYSDENDP [RRP4],2.93 ± 0.24
17,RLFNNVKIHSQESLLSR [SRP72],2.44 ± 0.085
18,RLGSFTRAKAKVEEMNN [RPL36A],2.85 ± 0.19
19,RLLPINVNKKALGQDTE [MED11],2.89 ± 0.035
20,RLNFNQNSSKIVNVLSK [SWI3],3.04 ± 0.048
21,RLPTFLKHKSICSCVNR [RPP1],1.98 ± 0.13
22,RLRALQLYFQKNGAQDL [RRI2],1.95 ± 0.087
23,RLTVSARDAPTKISTLA [QCR2],3.04 ± 0.066
24,RLVIKEALVERRRAFKR [RPB4],2.8 ± 0.22
25,RLWHTLKYYQDLKNTRM [SNF5],2.01 ± 0.06

row,Sequence,protein stability index
1,RMMGCVKKQKSARGIET [FAS2],1.36 ± 0.16
2,RMRLRALETENMEIRNL [GRR1],2.78 ± 0.055
3,RMSIKLLRLASKSTSMK [POP1],2.48 ± 0.053
4,RMTIRTRGRSATIRETY [RRP43],2.67 ± 0.062
5,RNARATRAAKIAPRPLD [RPL13A],3.33 ± 0.1
6,RNNHNSNTSTSKMLDAA [SNF12],3.22 ± 0.092
7,RNNSNNKTSNNNNVTAV [SWI1],1.74 ± 0.096
8,RNPARLMETLRTLRRKG [RPB2],2.47 ± 0.089
9,RNSFIRDMIMKRNSDKV [ITC1],2.29 ± 0.16
10,RNSLETKLTTCKRELAF [YIL149C/MLP2],1.88 ± 0.09
11,RNVVEDINQAKDFIENV [BRN1],3.24 ± 0.078
12,RPTGGANMATVPSTTNV [MED6],2.42 ± 0.17
13,RQCFREKANDIGFNKFR [RPS29A],3 ± 0.098
14,RQELQMQRQQQGISGSQ [SNF2],2.94 ± 0.042
15,RQFLHELRRPGVDNLRR [RPO31],1.25 ± 0.23
16,RQLSPHTLMSFAGEAGD [PRE1],1.83 ± 0.12
17,RQQQQRSILQSLNPALQ [SWI1],1.54 ± 0.084
18,RRANFYKENEAMLRENI [SNF12],3.33 ± 0.074
19,RREVQIQLQEFLLSAMT [NSL1],1.47 ± 0.12
20,RRLHKVLRPFLLRRLKK [SNF2],1.89 ± 0.12
21,RRLLNLYNDNNKNNNNR [SWI1],2.22 ± 0.16
22,RRNRYKTYYGIHCLAVR [RPN7],1.29 ± 0.13
23,RRVKQLDDITDSNTTEI [SIR4],2.83 ± 0.069
24,RSGALIKFKKCDGDTVW [SSN2],2.62 ± 0.048
25,RSLCEVLVYDDKLEKVT [RPC34],2.33 ± 0.1

row,Sequence,protein stability index
1,RSLDENRLEIKYHNDLI [SMC1],2.78 ± 0.26
2,RSLGLQQVVCIFSYGPH [POP6],1.57 ± 0.049
3,RSMIEHARTAAVTHNLY [PUP2],2.46 ± 0.13
4,RSNQYQRGKMHGLKQLR [NUT2],1.48 ± 0.28
5,RSNTGALMRCSFEETVE [RPO21],3.06 ± 0.061
6,RSPLVTPMDESSYDLLF [SRP72],3.29 ± 0.12
7,RSQISEKDAKINKLMEK [SIR4],3.17 ± 0.062
8,RSRISSPHGLINLNVDD [SRB4],2.61 ± 0.075
9,RSTMMKFLKIASLKHDN [RPN3],2.86 ± 0.089
10,RSTRIRTKSQVIEEDYD [IRR1],3.42 ± 0.078
11,RTPYLTSLKKIKDEIDD [SWI1],2.21 ± 0.12
12,RTQPWSIMPDLYFYRNP [RPS0B],2.85 ± 0.043
13,RVEPETFEIPQAHEIVI [SWI3],2.54 ± 0.079
14,RVGGGGTGRSGQGAFGN [RPL4A],3.54 ± 0.066
15,RVNKNAPAVELHGNAKK [FAS2],3.2 ± 0.18
16,RVVYLKHLEDNTLLISG [RPL6A],1.81 ± 0.17
17,RWKRFTIGAIFLNHAFD [CDC53],2.18 ± 0.099
18,RYDSNSGGEREIQRTML [RPT2],3.39 ± 0.12
19,RYDYSDEVGRRSMLTVV [YCG1],2.91 ± 0.094
20,RYQHLEKITQISLLCKN [PCI8],1.25 ± 0.11
21,RYRVDLLNTDHTLDPSL [RPO21],2.92 ± 0.05
22,SAAATPSLNKTINGKVN [GAL11],2.81 ± 0.042
23,SAAKYKDMKLLRYYKNI [NUT1],2.23 ± 0.079
24,SADAPNPNNVNVQTQYR [RET1],2.77 ± 0.07

# From the supplement of paper PMC9732359
